Assay [1] addresses T1, BubR1/Bub3 complex (3×FLAG–BubR1 with untagged Bub3) (UniProt O60566 1-1050; O43684 1-328). Description: MST.
The target in assay [2] is Bub1(1–553)/Bub3 complex (3×FLAG–Bub1(1–553) with untagged Bub3) (UniProt O43683 1-553; O43684 1-328). The assay is described as follows: MST.
Assay [3] concerns the target T1, BubR1/Bub3 complex (3×FLAG–BubR1 with …). Description: MST; 0 mM NaCl.
For assay [4] the target is unchanged. The assay is described as follows: MST; 50 mM NaCl.
The target is the same in assay [5]. The assay is described as follows: MST; 150 mM NaCl.
For assay [6] the target is unchanged. The assay is described as follows: MST; 200 mM NaCl.

Non-standard residues stand in square brackets, D forms with d. No end group written: not given here. pT = C[C@@H](OP(=O)(O)O)[C@H](N)C(=O)O; Nle = CCCC[C@H](N)C(=O)O

T1 sequence (O60566 whole entry, chain 1 of 2): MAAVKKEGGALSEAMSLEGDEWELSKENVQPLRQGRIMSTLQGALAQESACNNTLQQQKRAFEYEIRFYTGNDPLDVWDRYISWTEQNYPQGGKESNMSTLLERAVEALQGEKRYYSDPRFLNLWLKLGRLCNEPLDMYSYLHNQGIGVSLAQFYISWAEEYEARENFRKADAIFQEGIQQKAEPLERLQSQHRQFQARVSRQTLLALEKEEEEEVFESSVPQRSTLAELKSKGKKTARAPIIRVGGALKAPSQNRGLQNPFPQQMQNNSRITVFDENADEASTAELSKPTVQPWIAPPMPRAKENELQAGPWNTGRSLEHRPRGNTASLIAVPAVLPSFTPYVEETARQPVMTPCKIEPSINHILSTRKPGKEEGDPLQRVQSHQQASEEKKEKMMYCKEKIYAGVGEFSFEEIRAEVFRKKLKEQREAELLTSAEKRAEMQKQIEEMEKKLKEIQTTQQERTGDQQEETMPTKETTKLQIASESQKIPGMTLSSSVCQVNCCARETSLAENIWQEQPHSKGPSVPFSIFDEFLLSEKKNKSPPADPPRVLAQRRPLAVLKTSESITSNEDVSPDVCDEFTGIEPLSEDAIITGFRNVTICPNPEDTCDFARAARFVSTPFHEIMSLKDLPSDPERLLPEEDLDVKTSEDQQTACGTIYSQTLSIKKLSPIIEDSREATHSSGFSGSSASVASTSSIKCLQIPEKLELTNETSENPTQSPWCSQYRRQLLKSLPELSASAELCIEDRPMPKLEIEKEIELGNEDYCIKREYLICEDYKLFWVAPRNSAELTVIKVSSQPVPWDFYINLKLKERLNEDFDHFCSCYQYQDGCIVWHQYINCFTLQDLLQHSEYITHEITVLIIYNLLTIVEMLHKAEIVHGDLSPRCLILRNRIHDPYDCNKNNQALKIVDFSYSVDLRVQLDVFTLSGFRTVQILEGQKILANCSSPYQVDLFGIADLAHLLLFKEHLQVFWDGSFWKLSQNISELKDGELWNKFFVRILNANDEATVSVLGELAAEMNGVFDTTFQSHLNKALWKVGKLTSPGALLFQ
T1 sequence (O43684 whole entry, chain 2 of 2): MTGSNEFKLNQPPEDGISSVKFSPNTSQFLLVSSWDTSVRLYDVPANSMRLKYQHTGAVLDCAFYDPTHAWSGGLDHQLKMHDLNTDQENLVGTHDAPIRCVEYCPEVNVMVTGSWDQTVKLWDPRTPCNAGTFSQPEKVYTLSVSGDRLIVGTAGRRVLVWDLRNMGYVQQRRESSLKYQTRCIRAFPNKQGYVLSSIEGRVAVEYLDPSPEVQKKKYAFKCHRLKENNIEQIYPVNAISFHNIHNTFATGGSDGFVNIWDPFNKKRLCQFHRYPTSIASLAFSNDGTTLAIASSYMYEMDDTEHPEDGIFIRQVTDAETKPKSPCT
Sequence of Bub1(1–553)/Bub3 complex (3×FLAG–Bub1(1–553) with untagged Bub3) (O43683 1-553, chain 1 of 2): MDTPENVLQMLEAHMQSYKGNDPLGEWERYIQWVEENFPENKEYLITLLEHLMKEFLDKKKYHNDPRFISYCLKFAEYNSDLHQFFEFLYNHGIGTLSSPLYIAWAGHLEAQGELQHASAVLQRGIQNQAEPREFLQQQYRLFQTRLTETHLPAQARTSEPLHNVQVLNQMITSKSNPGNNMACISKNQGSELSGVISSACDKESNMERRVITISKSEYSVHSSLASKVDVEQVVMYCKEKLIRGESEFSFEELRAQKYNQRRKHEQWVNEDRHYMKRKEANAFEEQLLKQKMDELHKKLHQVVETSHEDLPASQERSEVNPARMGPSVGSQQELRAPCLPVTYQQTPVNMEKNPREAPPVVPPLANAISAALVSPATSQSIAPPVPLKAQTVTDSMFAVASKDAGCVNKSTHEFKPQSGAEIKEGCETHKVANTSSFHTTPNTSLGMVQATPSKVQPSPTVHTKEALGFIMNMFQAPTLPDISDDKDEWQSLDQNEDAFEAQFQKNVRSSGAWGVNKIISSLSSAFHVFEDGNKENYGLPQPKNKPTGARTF
Sequence of Bub1(1–553)/Bub3 complex (3×FLAG–Bub1(1–553) with untagged Bub3) (O43684 whole entry, chain 2 of 2): as the sequence (O43684 whole entry, chain 2 of 2) above

B1: MELT12p peptide (MDIT phosphorylated), Btn-PEG2-C-PEG2-EDDKND-Nle-DI-Tp-KSYTIEIN-amide (peptide)
peptide: EDDKNDMDITKSYTIEIN
modifications: N-terminal Btn-PEG2-C-PEG2 (biotin, PEG2, cysteine, PEG2); Nle (norleucine) at position 7 of the letters, written here as M; phosphothreonine (Tp) at position 10 of the letters (MDIT); C-terminal amide
For the molecule B1, the dissociation constant Kd in assay [1] was 258 nM; in assay [2] it was 579 nM; in assay [3], 82 nM; in assay [4], 259 nM; in assay [5], 379 nM; in assay [6] it was 936 nM.

B2: MELT12 peptide (unphosphorylated), Btn-PEG2-C-PEG2-EDDKND-Nle-DI-T-KSYTIEIN-amide (peptide)
peptide: EDDKNDMDITKSYTIEIN
modifications: N-terminal Btn-PEG2-C-PEG2 (biotin, PEG2, cysteine, PEG2); Nle (norleucine) at position 7 of the letters, written here as M; C-terminal amide
As for B2, the Kd in assay [1] was > 195000 nM; in assay [2] it was > 379000 nM.

B3: MELT16p peptide, ENHKND-NIe-DI-Tp-QSC-NIe-VEIDY-amide (peptide)
peptide: ENHKND[Nle]DI[pT]QSC[Nle]VEIDY-NH2
modifications: N-terminus assumed
SMILES: CCCC[C@H](NC(=O)[C@H](CC(=O)O)NC(=O)[C@H](CC(N)=O)NC(=O)[C@H](CCCCN)NC(=O)[C@H](Cc1c[nH]cn1)NC(=O)[C@H](CC(N)=O)NC(=O)[C@@H](N)CCC(=O)O)C(=O)N[C@@H](CC(=O)O)C(=O)N[C@H](C(=O)N[C@H](C(=O)N[C@@H](CCC(N)=O)C(=O)N[C@@H](CO)C(=O)N[C@@H](CS)C(=O)N[C@@H](CCCC)C(=O)N[C@H](C(=O)N[C@@H](CCC(=O)O)C(=O)N[C@H](C(=O)N[C@@H](CC(=O)O)C(=O)N[C@@H](Cc1ccc(O)cc1)C(N)=O)[C@@H](C)CC)C(C)C)[C@@H](C)OP(=O)(O)O)[C@@H](C)CC
With B3, the Kd in assay [1] worked out at 286 nM; in assay [2], 757 nM.

The Kd is the equilibrium constant for the complex coming apart. A low value points to higher affinity.

Source of the values: PMC4963475 (2016).
